We go through two molecules from US20070269439A1 (published 2007).

Assay [1] has as its target IL-17 receptor (receptor of the first BIACORE screen of Example 8; construct not stated) (Homo sapiens (Human)) (UniProt Q96F46). As to the kind of experiment: BIACORE SPR; IL-17 at 25 ug/mL.
The target in assay [2] is T1, IL17RLP (Met-(-19) through Gly-270 of SEQ ID NO:2)-Fc fusion (human, UniProt Q9NRM6 18-289).
T1 construct: also called IL17RLP-Fc; soluble IL17RLP-Fc fusion protein; not shown: human Fc domain (heavy chain constant region of IgG1)
T1 sequence: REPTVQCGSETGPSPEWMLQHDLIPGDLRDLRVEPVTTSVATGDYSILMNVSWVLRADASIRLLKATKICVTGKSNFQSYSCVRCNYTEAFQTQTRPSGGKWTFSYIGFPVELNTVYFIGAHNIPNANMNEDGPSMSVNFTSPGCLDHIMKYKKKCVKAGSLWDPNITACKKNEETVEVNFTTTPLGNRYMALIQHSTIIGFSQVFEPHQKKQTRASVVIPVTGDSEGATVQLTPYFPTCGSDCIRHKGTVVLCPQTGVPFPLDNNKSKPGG
The assay is described as follows: BIACORE SPR (summary of Example 8). On the procedure: (§1) Binding Analyses—IL-20 protein was dialyzed against 10 mM sodium acetate buffer, pH 5 and a BIACORE™ flow cell was prepared for each receptor at densities of 7900 and 9600 RU for IL-17R and IL17RLP, respectively. Various concentrations of purified IL-20 and IL-17 (R&D Systems, Minneapolis, Minn.) in 50 microliters herpes-buffered saline (HBS) buffer were examined for receptor binding at a flow rate of 15 microliters per minute. After injection of sample the flow cell was equilibrated with HBS. Flow cells were regenerated using two 40 sec pulses of 10 mM HCl.

Assay [3] concerns the target T2, IL-17 receptor (Met-1 through Asp-315)-Fc (human, UniProt Q96F46 33-315).
T2 construct: range 1-315; also called IL17R-Fc; huIL-17R extracellular domain-Fc; not shown: human Fc domain (heavy chain constant region of IgG1)
The assay is described as follows: BIACORE SPR (summary of Example 8). As for the experimental part:
as §1

Assay [4] deals with IL-17 receptor (receptor of the first BIACORE screen of Example 8; construct not stated) (Homo sapiens (Human)) (UniProt Q96F46). The assay is described as follows: BIACORE SPR; conditioned CHO culture supernatant, IL-20 concentration estimated at ~25 ug/mL.

Where “and” joins values, the source holds several entries; their conditions need not be identical. Equal entries are not always repeated.

T2 sequence (Q96F46 33-315 limits assumed): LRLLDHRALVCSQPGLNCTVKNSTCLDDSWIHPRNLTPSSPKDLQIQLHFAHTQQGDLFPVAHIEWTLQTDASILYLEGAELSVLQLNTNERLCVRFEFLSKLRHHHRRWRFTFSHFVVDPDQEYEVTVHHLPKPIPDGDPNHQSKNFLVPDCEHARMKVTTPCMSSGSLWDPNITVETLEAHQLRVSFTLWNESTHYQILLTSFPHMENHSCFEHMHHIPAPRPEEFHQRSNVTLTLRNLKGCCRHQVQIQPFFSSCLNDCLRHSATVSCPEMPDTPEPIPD

“Recombinant human IL-17 (R&D Systems) (from UniProt Q16552 20-155) (ligand)” registered an SPR binding response (RU) in assay [1] of 60 RU.

B1: recombinant human IL-20 expressed in CHO cells (purified protein or conditioned culture supernatant) (ligand)
chain: RSPKSKRKGQGRPGPLAPGPHQVPLDLVSRMKPYARMEEYERNIEEMVAQLRNSSELAQRKCEVNLQLWMSNKRSLSPWGYSINHDPSRIPVDLPEARCLCLGCVNPFTMQEDRSMVSVPVFSQVPVRRRLCPPPPRTGPCRQRAVMETIAVGCTCIF
notes: The complete ORF was expressed in CHO cells and the protein was secreted; The preparation is heterogeneous; Residues 23-180 is the longest species observed; GenBank AF212311 is printed; also called hIL-20; huIL-20
On to B1, for which the binding result in assay [2] and in assay [3] was “binds” each time. The SPR binding response (RU) in assay [4] is 115 RU and 65 RU.
